What was measured:
Caspase-1 = biological target: T1, Caspase-1 (Homo sapiens, UniProt P29466); assay: Caspase-1 activation in human RPE cells (Western blot p20, Caspalux substrate cleavage); assay type: cell-based; details: for Alu RNA-induced Caspase-1 substrate cleavage: Caspalux fluorescent substrate
T1 construct: Primary human RPE cells were isolated as previously described; endogenous in cells; host or cells: primary human RPE cells
T1 sequence (P29466 120-297 limits assumed): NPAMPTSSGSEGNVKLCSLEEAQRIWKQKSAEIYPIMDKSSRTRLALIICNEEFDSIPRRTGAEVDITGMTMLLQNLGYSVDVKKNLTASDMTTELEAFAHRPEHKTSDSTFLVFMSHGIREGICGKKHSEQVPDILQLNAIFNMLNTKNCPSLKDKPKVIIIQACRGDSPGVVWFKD
T1 sequence (P29466 317-404 limits assumed): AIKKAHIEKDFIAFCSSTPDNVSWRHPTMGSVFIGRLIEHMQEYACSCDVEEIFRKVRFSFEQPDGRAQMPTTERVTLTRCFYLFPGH
Experimental: Protein abundance was assessed by Western blot analysis using antibodies against Caspase-1 (1:500; Invitrogen), pIRAK1 (1:500; Thermo Scientific), pIRAK4 (1:500, Abbomax), PYCARD (1:200, Santa Cruz Biotechnology), NLRP3 (1:500, Enzo Life Sciences) and Vinculin (1:1,000; Sigma-Aldrich). Caspase-1 activity was visualized using Caspalux1 E1D2 (Oncolmmunin) according to manufacturer's instructions.
Tissues or cells were homogenized in lysis buffer (10 mM Tris base, pH 7.4, 150 mM NaCl, 1 mM EDTA, 1 mM EGTA, 1% Triton X-100, 0.5% NP-40, protease and phosphatase inhibitor cocktail (Roche)). Protein concentrations were determined using a Bradford assay kit (Bio-Rad) with bovine serum albumin as a standard. Proteins (40-100 μg) were run on NuPAGE Bis-Tris gels (Invitrogen) and transferred to Immun-Blot PVDF membranes (Bio-Rad). Cells were scraped in hot Laemmli buffer (62.5 mM Tris base, pH 6.8, 2% SDS, 5% 2-Mercaptoethanol, 10% Glycerol, 0.01% Bromophenol Blue). Samples were boiled and run on 4-20% NuPAGE Tris-Glycine gels (Invitrogen). The transferred membranes were blocked for 1 h at RT and incubated with antibodies against human Caspase-1 (1:500; Invitrogen), mouse Caspase 1 (1:500; MBL), NLRP3 (1:1000; Enzo Life Sciences), PYCARD (1:1000, RayBiotech), phospho-IRAK1 (S376) (1:500, Thermo Scientific), phospho-IRAK4 (T345) (1:500, AbboMax), DICER1 (1:2,000; Bethyl), MyD88 (1:1,000; Cell Signaling), and mouse IL-18 (1:200; MBL) at 4° C. overnight. Protein loading was assessed by immunoblotting using an anti-Vinculin antibody (1:1,000; Sigma-Aldrich). The secondary antibodies were used (1:5,000) for 1 h at RT. The signal was visualized by enhanced chemiluminescence (ECL plus) and captured by VisionWorksLS Image Acquisition and Analysis software (Version 6.7.2, UVP, LLC).
Caspase-1 activity. Caspase-1 activity was visualized by incubating cells with Caspalux1E1D2 reagent (Oncolmmunin) according to the manufacturer's instructions. Caspalux1E1D2 signal was quantified reading the fluorescence (excitation 552 nm, emission 580 nm) using a Synergy 4 reader (Biotek). Quantification of fluorescence from images was performed by converting images into grayscale in Adobe Photoshop CSS, and measuring the integrated density of black and white images using ImageJ software (NIH) (Bogdanovich et al., 2008).

RPE = assay: AAV1-BEST1-Cre-induced RPE degeneration in Dicer1 f/f mice; assay type: in vivo; details: peptide intravitreous
Experimental: Subretinal injections (1 μL) in mice were performed using a Pico-Injector (PLI-100, Harvard Apparatus). In vivo transfection of plasmids coding for two different Alu sequences (pAlu) or empty control vector (pNull) (Bennett et al., 2008; Kaneko et al., 2011; Shaikh et al., 1997) was achieved using 10% Neuroporter (Genlantis). AAV1-BEST1-Cre (Alexander and Hauswirth, 2008) or AAV1-BEST1-GFP were injected at 1.0×10^11 pfu/mL and in vitro transcribed Alu RNA was injected at 0.3 mg/mL. […]

Substance	Alu RNA-induced Caspase-1 substrate cleavage (Caspase-1)	Alu RNA-induced Caspase-1 activation (p20 subunit) (Caspase-1; Western blot)	AAV1-BEST1-Cre-induced RPE degeneration (RPE)	Alu RNA-induced Caspase-1 substrate cleavage (Caspase-1; listed as Caspase-1-inhibitory peptide)	Alu RNA-induced Caspase-1 substrate cleavage (Caspase-1; listed as Caspase-1 inhibitor peptide)
DRQIKIWFQNRRMKWKKRDVLPGT [MyD88 inhibitory peptide]	does not reduce	unaffected	blocked		
Z-WEHD-FMK			blocked	blocked Alu RNA-induced substrate cleavage	blocks

— patent US9453226B2, “Protection of cells from Alu-RNA-induced degeneration and inhibitors for protecting cells” (UNIVERSITY OF KENTUCKY RESEARCH FOUNDATION, priority 2011, dated 2016)
